The supplement of paper PMC7877785
± gives the uncertainty stated by the source.

Assay: self-splicing fitness, log relative to wild type (ln ratio); higher = more splicing; Tetrahymena group I intron in knt gene, E. coli kanamycin selection, DiMSum; sequences stand for … in CUCUCU…GGAGGGAAAAGUUAUCAGGCAUGCACCUGGUAGCUAGUCUUUAAACCAAUAGAUUGCAUCGGUUUAAAAGGCAAGACCGUCAAAUUGCGGGAAAGGGGUCAACAGCCGUUCAGUACCAAGUCUCAGGGGAAACUUUGAGAUGGCCUUGCAAAGGGUAUGGUAAUAAGCUGACGGACAUGGUCCUAACCACGCAGCCAAGUCCUAAGUCAACAGAUCUUCUGUUGAUAUGGAUGCAGUUCACAGACUAAAUGUCGGUCGGGGAAGAUGUAUUCUUCUCAUAAGAUAUAGUCGGACCUCUCCUUAAUGGGAGCUAGCGGAUGAAGUGAUGCAACACUGGAGCCGCUGGGAACUAAUUUGUAUGCGAAAGUAUAUUGAUUAGUUUUGGAGUACUCGUGGUCG
How it was run: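 Six replicate transformations of E. coli BL21(DE3) with a pET-22b(+) library were grown overnight at 37°C or 30°C. The library randomised all eight P1ex-region intron nucleotides, the intron lying in the knt kanamycin-resistance gene, and plates were LB agar with or without 25 μg/mL kanamycin plus 100 μg/mL carbenicillin, 50 μM IPTG and 0.2% rhamnose. Pooled colonies were amplicon-sequenced on an Illumina HiSeq 2500, and fitness is the DiMSum error-weighted combination of wild-type-normalised replicate fold changes, kanamycin versus none.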

Row | Sequence | self-splicing fitness (ln) (30 °C) | self-splicing fitness (ln) (37 °C)
1 | CUCAAGCAAUAUUACGAGGA | -1.9 ± 0.13 | -1.66 ± 0.13
2 | CUCAAGCAAUAUUACGAGUG | -2.91 ± 0.11 | -1.41 ± 0.086
3 | CUCAAGCAAUAUUACGAUAG | -2 ± 0.1 | -0.283 ± 0.1
4 | CUCAAGCAAUAUUACGAUUC | -4.11 ± 0.27 | -2.26 ± 0.24
5 | CUCAAGCAAUAUUACGCAGC | -4.03 ± 0.43 | -1.9 ± 0.44
6 | CUCAAGCAAUAUUACGCAUA | -3.29 ± 0.22 | -3.07 ± 0.34
7 | CUCAAGCAAUAUUACGCCCC | – | -1.28 ± 0.5
8 | CUCAAGCAAUAUUACGCGAU | -2.3 ± 0.11 | -0.996 ± 0.11
9 | CUCAAGCAAUAUUACGCGGU | -3.45 ± 0.19 | -1.07 ± 0.12
10 | CUCAAGCAAUAUUACGCUUA | -2.62 ± 0.27 | -3.26 ± 0.37
11 | CUCAAGCAAUAUUACGCUUG | -3.58 ± 0.18 | -2.38 ± 0.23
12 | CUCAAGCAAUAUUACGGGAG | -2.91 ± 0.17 | -1.77 ± 0.18
13 | CUCAAGCAAUAUUACGGUUG | -3.38 ± 0.19 | -2.56 ± 0.22
14 | CUCAAGCAAUAUUACGUAGA | -3.23 ± 0.1 | -1.53 ± 0.11
15 | CUCAAGCAAUAUUACGUGAA | -0.683 ± 0.077 | -0.629 ± 0.12
16 | CUCAAGCAAUAUUACGUGCG | -2.81 ± 0.14 | -0.8 ± 0.12
17 | CUCAAGCAAUAUUACGUGGA | -3.76 ± 0.18 | -1.19 ± 0.084
18 | CUCAAGCAAUAUUACGUUGG | -2.93 ± 0.12 | -1.5 ± 0.13
19 | CUCCAGCAAUAUUACGACAA | -2.27 ± 0.23 | -2.29 ± 0.31
20 | CUCCAGCAAUAUUACGACAU | -4.008 ± 0.026 | -2.95 ± 0.039
21 | CUCCAGCAAUAUUACGACUG | -3.12 ± 0.14 | -2.83 ± 0.16
22 | CUCCAGCAAUAUUACGAGGC | -3.02 ± 0.3 | –
23 | CUCCAGCAAUAUUACGCACA | -1.38 ± 0.15 | -2.29 ± 0.27
24 | CUCCAGCAAUAUUACGCACC | – | -2.4 ± 0.45
25 | CUCCAGCAAUAUUACGCCAC | -2.7 ± 0.35 | –

Row | Sequence | self-splicing fitness (ln) (30 °C) | self-splicing fitness (ln) (37 °C)
26 | CUCCAGCAAUAUUACGCCAG | -3.19 ± 0.37 | -2.08 ± 0.46
27 | CUCCAGCAAUAUUACGCCUU | -2.33 ± 0.18 | -2.29 ± 0.27
28 | CUCCAGCAAUAUUACGCGGA | -3.39 ± 0.2 | -3.02 ± 0.22
29 | CUCCAGCAAUAUUACGCGGG | -3.86 ± 0.24 | -1.82 ± 0.23
30 | CUCCAGCAAUAUUACGCGUG | -2.19 ± 0.075 | -1.29 ± 0.085
31 | CUCCAGCAAUAUUACGCUAU | -3.89 ± 0.33 | -2.44 ± 0.22
32 | CUCCAGCAAUAUUACGCUGA | -2.59 ± 0.18 | -2.65 ± 0.22
33 | CUCCAGCAAUAUUACGGACU | -2.61 ± 0.24 | -2.07 ± 0.33
34 | CUCCAGCAAUAUUACGGCCU | -3.5 ± 0.2 | -1.63 ± 0.24
35 | CUCCAGCAAUAUUACGGGUU | -3.83 ± 0.2 | -2.91 ± 0.2
36 | CUCCAGCAAUAUUACGGUAA | -1.4 ± 0.13 | -1.8 ± 0.15
37 | CUCCAGCAAUAUUACGUAAG | -0.512 ± 0.053 | 0.0902 ± 0.076
38 | CUCCAGCAAUAUUACGUAUG | -2.03 ± 0.077 | -1.8 ± 0.087
39 | CUCCAGCAAUAUUACGUGAA | -1.24 ± 0.065 | -0.328 ± 0.09
40 | CUCCAGCAAUAUUACGUGCG | -3.63 ± 0.27 | -1.84 ± 0.18
41 | CUCCAGCAAUAUUACGUGUU | -3.62 ± 0.13 | -2.31 ± 0.11
42 | CUCCAGCAAUAUUACGUUGA | -2.56 ± 0.18 | -2.87 ± 0.19
43 | CUCCAGCAAUAUUACGUUUC | -3.65 ± 0.28 | -3.12 ± 0.3
44 | CUCGAGCAAUAUUACGACUU | -3.19 ± 0.19 | -1.73 ± 0.23
45 | CUCGAGCAAUAUUACGAGAG | -1.71 ± 0.28 | –
46 | CUCGAGCAAUAUUACGAUGU | – | -2.06 ± 0.3
47 | CUCGAGCAAUAUUACGCACC | – | -2.08 ± 0.32
48 | CUCGAGCAAUAUUACGCCAU | -2.93 ± 0.48 | -1.94 ± 0.35
49 | CUCGAGCAAUAUUACGCUCG | -2.72 ± 0.42 | –
50 | CUCGAGCAAUAUUACGGACA | -2.98 ± 0.33 | -1.35 ± 0.29
